Laboratory results as given in patent publication US20250298032A1 (INSTITUTE FOR RESEARCH IN BIOMEDICINE, published 2025).
Numbering of substitutions follows the chain as printed.

Assays:
CXCL16 N-loop peptide = biological target: T1, CXCL16 N-loop peptide (human, biotin-Ahx at the N-terminus; amidated at the C-terminus); experiment: ELISA, biotinylated CXCL16 N-loop peptide on neutravidin plate, anti-human IgG-HRP, OD450 nm
T1 construct: Synthetic peptide, captured on Neutravidin-coated ELISA plates
T1 peptide: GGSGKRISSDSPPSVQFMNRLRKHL
Method: (§1) To evaluate the antibodies' binding to chemokine peptides, 96-well plates (ThermoFisher, 442404) were coated with 50 μl per well of a 2 μg/ml Neutravidin (Life Technologies, 31000) solution in PBS, overnight at room temperature. Plates were washed 4 times with washing buffer (PBS+0.05% Tween-20 [Sigma-Aldrich]) and incubated with 50 μl per well of a 50 nM biotinylated peptide solution in PBS for 1 h at room temperature. After washing 4 times with washing buffer, plates were incubated with 200 μl per well of blocking buffer (PBS+2% BSA+0.05% Tween-20) for 2 h at room temperature. Plates were then washed 4 times with washing buffer, and serial dilutions of monoclonal antibodies or plasma were added in PBS +0.05% Tween-20 and incubated for 1 h at room temperature. To screen for the presence of anti-chemokine IgGs, plasma samples were assayed (unless otherwise stated) at 1:50 starting dilution followed by 3 fourfold serial dilutions (1:200, 1:800, 1:3200). Monoclonal antibodies were tested at 5 μg/ml starting concentration followed by 11 threefold serial dilutions. Plates were subsequently washed 4 times with washing buffer and incubated with anti-human IgG secondary antibody conjugated to horseradish peroxidase (HRP) (GE Healthcare, NA933) at a 1:5000 dilution in PBS+0.05% Tween-20. Finally, after washing 4 times with washing buffer, plates were developed by the addition of 50 μl per well of the HRP substrate TMB (ThermoFisher, 34021) for 9 min. The developing reaction was stopped with 50 μl per well of a 1 M H₂SO₄ solution, and absorbance was measured at 450 nm with an ELISA microplate reader (BioTek) with Gen5 software. A positive control (broadly reactive plasma from donor CLM70) and a negative control (uninfected participant) samples were included in each experiment. The Area Under the Curve (AUC) was obtained from two independent experiments and plotted with GraphPad Prism.

CXCL13 N-loop peptide = biological target: T2, CXCL13 N-loop peptide (human, biotin-Ahx at the N-terminus; amidated at the C-terminus); experiment: ELISA, biotinylated CXCL13 N-loop peptide on neutravidin plate, anti-human IgG-HRP, OD450 nm
T2 construct: Synthetic peptide, captured on Neutravidin-coated ELISA plates
T2 peptide: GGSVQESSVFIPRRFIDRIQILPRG
Method: as §1

CCL13 N-loop peptide [1] = biological target: T3, CCL13 N-loop peptide (human, biotin-Ahx at the N-terminus; amidated at the C-terminus); experiment: ELISA, biotinylated CCL13 N-loop peptide on neutravidin plate, OD450 nm
T3 peptide: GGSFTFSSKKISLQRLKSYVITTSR
Method: as §1, with “Plates were subsequently washed 4 times with washing buffer and incubated with anti-human IgG secondary antibody conjugated to horseradish peroxidase (HRP) (GE Healthcare, NA933) at a 1:5000 dilution in PBS+0.05% Tween-20. Finally, after washing 4 times with washing buffer, plates were developed by the addition of 50 μl per well of the HRP substrate TMB (ThermoFisher, 34021) for 9 min.” left out, “A positive control (broadly reactive plasma from donor CLM70) and a negative control (uninfected participant) samples were included in each experiment. The Area Under the Curve (AUC) was obtained from two independent experiments and plotted with GraphPad Prism.” left out

CCL11 N-loop peptide [2] = biological target: T4, CCL11 N-loop peptide (human, biotin-Ahx at the N-terminus; amidated at the C-terminus); experiment: ELISA, biotinylated CCL11 N-loop peptide on neutravidin plate, OD450 nm
T4 peptide: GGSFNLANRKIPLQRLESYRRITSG
Method: as §1, with “Plates were subsequently washed 4 times with washing buffer and incubated with anti-human IgG secondary antibody conjugated to horseradish peroxidase (HRP) (GE Healthcare, NA933) at a 1:5000 dilution in PBS+0.05% Tween-20. Finally, after washing 4 times with washing buffer, plates were developed by the addition of 50 μl per well of the HRP substrate TMB (ThermoFisher, 34021) for 9 min.” left out, “A positive control (broadly reactive plasma from donor CLM70) and a negative control (uninfected participant) samples were included in each experiment. The Area Under the Curve (AUC) was obtained from two independent experiments and plotted with GraphPad Prism.” left out

CCL7 N-loop peptide [3] = biological target: T5, CCL7 N-loop peptide (human, biotin-Ahx at the N-terminus; amidated at the C-terminus); experiment: ELISA, biotinylated CCL7 N-loop peptide on neutravidin plate, OD450 nm
T5 peptide: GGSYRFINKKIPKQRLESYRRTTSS
Method: as §1, with “Plates were subsequently washed 4 times with washing buffer and incubated with anti-human IgG secondary antibody conjugated to horseradish peroxidase (HRP) (GE Healthcare, NA933) at a 1:5000 dilution in PBS+0.05% Tween-20. Finally, after washing 4 times with washing buffer, plates were developed by the addition of 50 μl per well of the HRP substrate TMB (ThermoFisher, 34021) for 9 min.” left out, “A positive control (broadly reactive plasma from donor CLM70) and a negative control (uninfected participant) samples were included in each experiment. The Area Under the Curve (AUC) was obtained from two independent experiments and plotted with GraphPad Prism.” left out

CCL8 N-loop peptide = biological target: T6, CCL8 N-loop peptide (human, biotin-Ahx at the N-terminus; amidated at the C-terminus); experiment: ELISA, biotinylated CCL8 N-loop peptide on neutravidin plate, anti-human IgG-HRP, OD450 nm
T6 construct: Synthetic peptide (GenScript), captured on Neutravidin-coated ELISA plates
T6 peptide: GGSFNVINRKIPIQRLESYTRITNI
Method: as §1

CCL2 N-loop peptide [4] = biological target: T7, CCL2 N-loop peptide (human, biotin-Ahx at the N-terminus; amidated at the C-terminus); experiment: ELISA, biotinylated CCL2 N-loop peptide on neutravidin plate, OD450 nm
T7 peptide: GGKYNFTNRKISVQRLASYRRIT
Method: as §1, with “Plates were subsequently washed 4 times with washing buffer and incubated with anti-human IgG secondary antibody conjugated to horseradish peroxidase (HRP) (GE Healthcare, NA933) at a 1:5000 dilution in PBS+0.05% Tween-20. Finally, after washing 4 times with washing buffer, plates were developed by the addition of 50 μl per well of the HRP substrate TMB (ThermoFisher, 34021) for 9 min.” left out, “A positive control (broadly reactive plasma from donor CLM70) and a negative control (uninfected participant) samples were included in each experiment. The Area Under the Curve (AUC) was obtained from two independent experiments and plotted with GraphPad Prism.” left out

[5] = biological target: SARS-CoV-2 Spike (S) protein (SARS-CoV-2, UniProt P0DTC2 14-1208); experiment: ELISA on coated Spike protein (FIG. 2E)
CCL11 N-loop peptide [6] = biological target: T4, CCL11 N-loop peptide; experiment: ELISA on biotinylated N-loop peptide (FIG. 2D)
Method: as §1

CCL7 N-loop peptide [7] = biological target: T5, CCL7 N-loop peptide; experiment: ELISA on biotinylated N-loop peptide (FIG. 2D)
Method: as §1

CCL13 N-loop peptide [8] = biological target: T3, CCL13 N-loop peptide; experiment: ELISA on biotinylated N-loop peptide (FIG. 2D)
Method: as §1

CCL2 N-loop peptide [9] = biological target: T7, CCL2 N-loop peptide; experiment: ELISA on biotinylated N-loop peptide (FIG. 2D)
Method: as §1

B1: aCXCL16.002 (antibody, human IgG1, V domains shown)
VH: EVQLVESGGGLSQPGWSLRLSCAASGLTVTRNYMSWVRQAPGKGLEWVSTLWTDGQKFYADSVKGRFTVSRDSYTNTLNLEMSGLRAEDTAVYFCTRDKVVPVRITPDYHYYGMDVWGQGTTVTVSS
VL: DIQLTQSPSFLSASVGDRVTITCRASQGVRRYLAWYQQKPGKAPKFLIYGASSLHTGVPSRFSGGGSDTEFTLTISNLQTEDFATYYCQQLDTYPLTFGGGTKVEIK
notes: also called anti-CXCL16 N-loop antibody
Q: Does B1 bind (CXCL16 N-loop peptide)?
A: binds

B2: aCXCL13.002 (antibody, V domains shown)
VH: EVQLVESGGGLVKPGGSLRLSCAASGFTFSSYSMNWVRQAPGKGLEWVSSISSSSSYIYYADSVKGRFTISRDNAKNSLYLQMNSLRAEDTAVYYCARDGIYDYAPVDYWGQGTLVTVSS
VL: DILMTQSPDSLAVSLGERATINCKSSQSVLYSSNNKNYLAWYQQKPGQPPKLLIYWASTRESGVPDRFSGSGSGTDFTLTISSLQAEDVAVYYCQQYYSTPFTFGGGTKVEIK
notes: also called anti-CXCL13 N-loop antibody
Q: Does B2 bind (CXCL13 N-loop peptide)?
A: binds

B3: aCXCL13.001 (antibody, human IgG1, V domains shown)
VH: QVQLVESGGGLVKPGGSLRLSCAASGFMFSDYYMSWIRQAPGKGLEWISYIGNSDASTFYADSVKGRFAISRDNAKNLLFLQMNSLRAEDTAVYYCARDGYSHSRGYSYGRKDAFDIWGRGTMVTVSS
VL: EIVLTQSPATLSLSPGERATLSCRASQSVSSYLAWYQQKPGQAPRLLIYAASQRATGIPARFSGTGSGTDFTLTISSLEPEDSAVYYCQQRGNWPGTFGQGTKVEIK
notes: as for B2
Q: Does B3 bind (CXCL13 N-loop peptide)?
A: binds

B4: aCCL8.001 (antibody, human IgG1, V domains shown)
VH: QVQLQESGPGLVKPAETLSLTCTVSGDSVSSESYFWGWIRQSPRKGLEWLGAVWYNGDTYYNPSVGGRVTISMDTSMNEISLRLSSVTAADTAVYFCATEHCIDEICSPASDSWGQGTLVTVSS
VL: DIVMTQSPDSLAVSLGERATINCKSSQSVFFSSNNENCLAWFQQKPGQPPKLLIHWASTRASGVPDRFSGSGSGTDFTLTISSLQAEDVAVYYCHQYLKAPRTFGQGTKVEIK
notes: kappa (VK4-1); also called VH4-39/VK4-1 antibody; anti-CCL8 antibody
Q: Does B4 bind (CCL13 N-loop peptide [1])?
A: no binding (tested: 5000 ng/ml)

Q: Does B4 bind (CCL11 N-loop peptide [2])?
A: no binding (tested: 5000 ng/ml)

Q: Does B4 bind (CCL7 N-loop peptide [3])?
A: no binding (tested: 5000 ng/ml)

Q: What about the “EC50 (read off the curve)” value (CCL8 N-loop peptide) of the same binder?
A: ~10 ng/mL

Q: Does B4 bind (CCL2 N-loop peptide [4])?
A: no binding (tested: 5000 ng/ml)

B5: aCCL8.003 (antibody, human IgG1, V domains shown)
VH: QLQLQESGPGLVKPSETLSLTCTVSGDSVSSSFYFWGWVRQPPGKGLEWIGSIYYTGDTYYKPSLKSRVTISMNTSKNQFSLRLSSVTAADTAVYYCATEFCTSGICHPASDSWGQGTLVTVSS
VL: B4 VL with F30L, F31L, S33A, E36K, H55Y, A61E, V91I, H95Q, L98Y
notes: also called VH4-39/VK4-1 antibody; anti-CCL8 antibody
Q: Does B5 bind [5]?
A: no binding

Q: Does B5 bind (CCL11 N-loop peptide [6])?
A: no binding (tested: 5 µg/ml starting concentration)

Q: Does B5 bind (CCL7 N-loop peptide [7])?
A: no binding (tested: 5 µg/ml starting concentration)

Q: Does B5 bind (CCL13 N-loop peptide [8])?
A: no binding (tested: 5 µg/ml starting concentration)

Q: Does B5 bind (CCL2 N-loop peptide [9])?
A: no binding (tested: 5 µg/ml starting concentration)

Q: What about the “EC50 (read off the curve)” value (CCL8 N-loop peptide) of the same binder?
A: ~10 ng/mL
